Laboratory results as given in patent US20160024487.

Columns and labels:
[1] = target: T1, Lys(Dnp)-ATNATPWPRIVGG-Lys(Abz)
T1 chain: KATNATPWPRIVGGK

[2] = target: T2, Lys(Dnp)-ATNATWQPRIVGG-Lys(Abz)
T2 chain: KATNATWQPRIVGGK

[3] = target: T3, Lys(Dnp)-ATNATYQPRIVGG-Lys(Abz)
T3 chain: KATNATYQPRIVGGK

[4] = target: T4, Lys(Dnp)-ATNATFFPRIVGG-Lys(Abz)
T4 chain: KATNATFFPRIVGGK

[5] = target: T5, Lys(Dnp)-ATNATFTPRIVGG-Lys(Abz)
T5 chain: KATNATFTPRIVGGK

[6] = target: T6, Lys(Dnp)-ATNATMHPRIVGG-Lys(Abz)
T6 chain: KATNATMHPRIVGGK

[7] = target: T7, Lys(Dnp)-ATNATAKPRIVGG-Lys(Abz)
T7 chain: KATNATAKPRIVGGK

[8] = target: T8, Lys(Dnp)-ATNATFGPRIVGG-Lys(Abz)
T8 chain: KATNATFGPRIVGGK

[9] = target: T9, Lys(Dnp)-ATNATIFPRIVGG-Lys(Abz)
T9 chain: KATNATIFPRIVGGK

[10] = target: T10, Lys(Dnp)-ATNATITPRIVGG-Lys(Abz)
T10 chain: KATNATITPRIVGGK

[11] = target: T11, Lys(Dnp)-ATNATLRPRIVGG-Lys(Abz)
T11 chain: KATNATLRPRIVGGK

[12] = target: T12, Lys(Dnp)-ATNATPFPRIVGG-Lys(Abz)
T12 chain: KATNATPFPRIVGGK

[13] = target: T13, Lys(Dnp)-ATNATFYPRIVGG-Lys(Abz)
T13 chain: KATNATFYPRIVGGK

[14] = target: T14, Lys(Dnp)-ATNATLAPRIVGG-Lys(Abz)
T14 chain: KATNATLAPRIVGGK

[15] = target: T15, Lys(Dnp)-ATNATVIPRIVGG-Lys(Abz)
T15 chain: KATNATVIPRIVGGK

[16] = target: T16, Lys(Dnp)-ATNATIWPRIVGG-Lys(Abz)
T16 chain: KATNATIWPRIVGGK

[17] = target: T17, Lys(Dnp)-ATNATRIPRIVGG-Lys(Abz)
T17 chain: KATNATRIPRIVGGK

[18] = target: T18, Lys(Dnp)-ATNATRSPRIVGG-Lys(Abz)
T18 chain: KATNATRSPRIVGGK

[19] = target: T19, Lys(Dnp)-ATNATPTPRIVGG-Lys(Abz)
T19 chain: KATNATPTPRIVGGK

[20] = target: T20, Lys(Dnp)-ATNATQAPRIVGG-Lys(Abz)
T20 chain: KATNATQAPRIVGGK

[21] = target: T21, Lys(Dnp)-ATNATKYPRIVGG-Lys(Abz)
T21 chain: KATNATKYPRIVGGK

[22] = target: T22, Lys(Dnp)-ATNATYLPRIVGG-Lys(Abz)
T22 chain: KATNATYLPRIVGGK

[23] = target: T23, Lys(Dnp)-ATNATNEPRIVGG-Lys(Abz)
T23 chain: KATNATNEPRIVGGK

[24] = target: T24, Lys(Dnp)-ATNATTDPRIVGG-Lys(Abz)
T24 chain: KATNATTDPRIVGGK

[25] = target: T25, Lys(Dnp)-ATNATWLPRIVGG-Lys(Abz)
T25 chain: KATNATWLPRIVGGK

[26] = target: T26, Lys(Dnp)-ATNATQEPRIVGG-Lys(Abz)
T26 chain: KATNATQEPRIVGGK

[27] = target: T27, Lys(Dnp)-ATNATTQPRIVGG-Lys(Abz)
T27 chain: KATNATTQPRIVGGK

[28] = target: T28, Lys(Dnp)-ATNATRYPRIVGG-Lys(Abz)
T28 chain: KATNATRYPRIVGGK

[29] = target: T29, Lys(Dnp)-ATNATANPRIVGG-Lys(Abz)
T29 chain: KATNATANPRIVGGK

[30] = target: T30, Lys(Dnp)-ATNATYNPRIVGG-Lys(Abz)
T30 chain: KATNATYNPRIVGGK

[31] = target: T31, Lys(Dnp)-ATNATDRPRIVGG-Lys(Abz)
T31 chain: KATNATDRPRIVGGK

[32] = target: T32, Lys(Dnp)-ATNATWVPRIVGG-Lys(Abz)
T32 chain: KATNATWVPRIVGGK

[33] = target: T33, Lys(Dnp)-ATNATQKPRIVGG-Lys(Abz)
T33 chain: KATNATQKPRIVGGK

[34] = target: T34, Lys(Dnp)-ATNATQRPRIVGG-Lys(Abz)
T34 chain: KATNATQRPRIVGGK

[35] = target: T35, Lys(Dnp)-ATNATKAPRIVGG-Lys(Abz)
T35 chain: KATNATKAPRIVGGK

[36] = target: T36, Lys(Dnp)-ATNATFSPRIVGG-Lys(Abz)
T36 chain: KATNATFSPRIVGGK

[37] = target: T37, Lys(Dnp)-ATNATEIPRIVGG-Lys(Abz)
T37 chain: KATNATEIPRIVGGK

[38] = target: T38, Lys(Dnp)-ATNATRHPRIVGG-Lys(Abz)
T38 chain: KATNATRHPRIVGGK

[39] = target: T39, Lys(Dnp)-ATNATLLPRIVGG-Lys(Abz)
T39 chain: KATNATLLPRIVGGK

[40] = target: T40, Lys(Dnp)-ATNATDVPRIVGG-Lys(Abz)
T40 chain: KATNATDVPRIVGGK

[41] = target: T41, Lys(Dnp)-ATNATPIPRIVGG-Lys(Abz)
T41 chain: KATNATPIPRIVGGK

B1: Human plasma purified Factor Xa (protein)
chain 1: ANSFLEEMKKGHLERECMEETCSYEEAREVFEDSDKTNEFWNKYKDGDQCETSPCQNQGKCKDGLGEYTCTCLEGFEGKNCELFTRKLCSLDNGDCDQFCHEEQNSVVCSCARGYTLADNGKACIPTGPYPCGKQTLER
chain 2: IVGGQECKDGECPWQALLINEENEGFCGGTILSEFYILTAAHCLYQAKRFKVRVGDRNTEQEEGGEAVHEVEVVIKHNRFTKETYDFDIAVLRLKTPITFRMNVAPACLPERDWAESTLMTQKTGIVSGFGRTHEKGRQSTRLKMLEVPYVDRNSCKLSSSFIITQNMFCAGYDTKQEDACQGDSGGPHVTRFKDTYFVTGIVSWGEGCARKGKYGIYTKVTAFLKWIDRSMKTRGLPKAKSHAPEVITSSPLK
[1]
  FXa kcat/KM: 1300 M⁻¹ s⁻¹
[2]
  FXa kcat/KM: 37 M⁻¹ s⁻¹
[3]
  FXa kcat/KM: 60 M⁻¹ s⁻¹
[4]
  FXa kcat/KM: 48 M⁻¹ s⁻¹
[5]
  FXa kcat/KM: 49 M⁻¹ s⁻¹
[6]
  FXa kcat/KM: 290 M⁻¹ s⁻¹
[7]
  FXa kcat/KM: 30 M⁻¹ s⁻¹
[8]
  FXa kcat/KM: 100 M⁻¹ s⁻¹
[9]
  FXa kcat/KM: 130 M⁻¹ s⁻¹
[10]
  FXa kcat/KM: 840 M⁻¹ s⁻¹
[11]
  FXa kcat/KM: 610 M⁻¹ s⁻¹
[12]
  FXa kcat/KM: 69 M⁻¹ s⁻¹
[13]
  FXa kcat/KM: 71 M⁻¹ s⁻¹
[14]
  FXa kcat/KM: 230 M⁻¹ s⁻¹
[15]
  FXa kcat/KM: 120 M⁻¹ s⁻¹
[16]
  FXa kcat/KM: 1500 M⁻¹ s⁻¹

B2: Human plasma purified Factor Xa (Molecular Innovations, Inc) (protein)
chain 1: B1 chain 1
chain 2: B1 chain 2
[1]
  FXa kcat/KM: 1300 M⁻¹ s⁻¹
[17]
  FXa kcat/KM: 700 M⁻¹ s⁻¹
[18]
  FXa kcat/KM: 2700 M⁻¹ s⁻¹
[19]
  FXa kcat/KM: 840 M⁻¹ s⁻¹
[20]
  FXa kcat/KM: 410 M⁻¹ s⁻¹
[21]
  FXa kcat/KM: 38 M⁻¹ s⁻¹
[22]
  FXa kcat/KM: 340 M⁻¹ s⁻¹
[23]
  FXa kcat/KM: 20 M⁻¹ s⁻¹
[24]
  FXa kcat/KM: 11 M⁻¹ s⁻¹
[25]
  FXa kcat/KM: 460 M⁻¹ s⁻¹
[26]
  FXa kcat/KM: 920 M⁻¹ s⁻¹
[27]
  FXa kcat/KM: 17 M⁻¹ s⁻¹
[28]
  FXa kcat/KM: 960 M⁻¹ s⁻¹
[29]
  FXa kcat/KM: 78 M⁻¹ s⁻¹
[30]
  FXa kcat/KM: 50 M⁻¹ s⁻¹
[31]
  FXa kcat/KM: 190 M⁻¹ s⁻¹
[32]
  FXa kcat/KM: 86 M⁻¹ s⁻¹
[33]
  FXa kcat/KM: 49 M⁻¹ s⁻¹
[34]
  FXa kcat/KM: 660 M⁻¹ s⁻¹
[35]
  FXa kcat/KM: 52 M⁻¹ s⁻¹
[36]
  FXa kcat/KM: 190 M⁻¹ s⁻¹
[37]
  FXa kcat/KM: 55 M⁻¹ s⁻¹
[38]
  FXa kcat/KM: 2600 M⁻¹ s⁻¹
[39]
  FXa kcat/KM: 590 M⁻¹ s⁻¹
[40]
  FXa kcat/KM: 15 M⁻¹ s⁻¹
[41]
  FXa kcat/KM: 590 M⁻¹ s⁻¹
